For one substance, stoichiometry N results are on record in article PMC4813160.

The target in the test is Isocitrate dehydrogenase (IDH) from B. longum (BlIDH) (Bifidobacterium longum subsp. infantis ATCC 15697). The test is described as follows: SEC; gel filtration on a 10/300 Superdex 200 column, 50 mM NaH2PO4 and 150 mM NaCl at pH 7.2; standards ovalbumin, conalbumin, aldolase, ferritin, thyroglobulin; single symmetrical peak, native mass 83 kDa against about 45 kDa for the subunit. (In general: In gel filtration, larger molecules generally elute earlier.)

Broadly, the stoichiometry N is a count of units in the complex or per binding partner. Substance “Isocitrate dehydrogenase (IDH) from B. longum (BlIDH) (enzyme)” returned a stoichiometry N of 2.
